Measured values published in PMC11479944.

How the values were obtained:
[1] = target: GluA2 N-terminal domain (isolated GluA2 NTD) (rat); test: SEC-MALS; GluA2 NTD injected at 13 mg/mL and 1 mg/mL (legend; the text says 1-2 mg ml^-1), 100 µl samples, Superdex S200 10/300, 10 mM HEPES, 150 mM KCl, pH 7.5; only dimers seen, no step from dimers to tetramer
[2] = target: rat GluA2flip(Q) isoform, tagged with a FLAG epitope near its C terminus (rat)

| stoichiometry N [1] | Substance | recovery from desensitization, patch-clamp recordings of GluA2 expressed in HEK293 cells, switching from pH 7.4 to pH 5.5 (pH 6.4 also tested) [2] [fold] |
| --- | --- | --- |
| 2 | GluA2 N-terminal domain (isolated GluA2 NTD) (domain or fragment) | – |
| – | rat GluA2flip(Q) isoform, tagged with a FLAG epitope near its C terminus (receptor) | 2 |
